In patent EP1724589A2:

Experiments:
S-100b [1] = assay: ELISA saturation curves with Scatchard analysis (Figures 10 and 11): S-100b coated at 500 and 100 ng/well, sRAGE about 23 to 470 nM or 5 to 76 nM, low affinity site
S-100b [2] = assay: ELISA saturation curve with Scatchard analysis (Figure 8): S-100b coated at 50 ng/well, sRAGE about 0.3 to 10 nM, high affinity component
S-100b [3] = assay: ELISA saturation curve with Scatchard analysis (Figure 9): S-100b coated at 100 ng/well, sRAGE about 0.3 to 10 nM, high affinity component
S-100b [4] = assay: ELISA: 88 wells coated with S-100b at 500 ng/well, sRAGE at 2.2 x 10^-4 mg/ml, polyclonal anti-sRAGE detection (Figure 7)
S-100b [5] = assay: ELISA: S-100b coated at 500 ng/well, sRAGE at 1.0 x 10^-4 mg/ml, detected with anti-sRAGE antibody complex

Kd (S-100b [1]): 60 nM
Kd (S-100b [2]): 6 nM
Kd (S-100b [3]): 2 nM
average OD405 (S-100b [4]): 0.705 OD405
OD (maximal signal) (S-100b [5]): 1.06 OD
Substance: soluble RAGE (sRAGE), the soluble, extracellular portion of human Receptor for Advanced Glycated Endproducts (from UniProt Q15109 23-339)
